Source: US20060115810A1

Target: extracellular region of the human tumor antigen c-erbB-2 (human) (UniProt P04626)
Test: method not given

Kd: 0.16 nM
Substance: scFv C6.5
